Tests used:
Test in all cases: holdup assay
Set-up in all cases: key: below the threshold = too weak to quantify, mostly under pKd 3.1 to 4
APBA1_1, Q02410 = target: T1, APBA1_1, Q02410
T1 sequence (Q02410 651-752, limits assumed, looked up): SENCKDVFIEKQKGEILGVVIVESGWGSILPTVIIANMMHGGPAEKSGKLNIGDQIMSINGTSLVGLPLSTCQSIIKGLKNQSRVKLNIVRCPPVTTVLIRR

ARHGEF12, Q9NZN5-2 = target: ARHGEF12, Q9NZN5-2
CASK, O14936 = target: CASK, O14936
DFNB31_1, Q9P202 = target: T2, DFNB31_1, Q9P202
T2 sequence (Q9P202 135-233, limits assumed, looked up): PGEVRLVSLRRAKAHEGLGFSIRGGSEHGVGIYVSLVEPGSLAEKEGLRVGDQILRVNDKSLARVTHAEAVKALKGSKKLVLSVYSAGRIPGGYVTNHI

DLG1_3, Q12959 = target: DLG1_3, Q12959
FRMPD2_3, Q68DX3 = target: FRMPD2_3, Q68DX3
GRID2IP_2, A4D2P6 = target: GRID2IP_2, A4D2P6
GRIP1_4, Q9Y3R0 = target: T3, GRIP1_4, Q9Y3R0
T3 sequence (Q9Y3R0 467-571, limits assumed, looked up): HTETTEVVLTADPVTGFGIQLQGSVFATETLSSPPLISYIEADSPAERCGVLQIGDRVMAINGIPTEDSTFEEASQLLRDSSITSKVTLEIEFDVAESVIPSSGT

GRIP2_4, Q9C0E4 = target: GRIP2_4, Q9C0E4
HTRA1, Q92743 = target: HTRA1, Q92743
HTRA3, P83110 = target: T4, HTRA3, P83110
T4 sequence (P83110 354-453, limits assumed, looked up): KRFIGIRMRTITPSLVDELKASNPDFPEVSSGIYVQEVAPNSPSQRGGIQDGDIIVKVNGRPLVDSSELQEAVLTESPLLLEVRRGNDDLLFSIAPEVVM

Inadl_3, Q8NI35 = target: Inadl_3, Q8NI35
Inadl_4, Q8NI35 = target: Inadl_4, Q8NI35
Inadl_5, Q8NI35 = target: Inadl_5, Q8NI35
Inadl_6, Q8NI35 = target: Inadl_6, Q8NI35
LIN7C, Q9NUP9 = target: T5, LIN7C, Q9NUP9
T5 sequence (Q9NUP9 88-185, limits assumed, looked up): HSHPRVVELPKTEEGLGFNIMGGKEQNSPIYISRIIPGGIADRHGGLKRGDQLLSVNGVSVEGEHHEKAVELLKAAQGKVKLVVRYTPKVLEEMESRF

MAGI1_1, Q96QZ7 = target: MAGI1_1, Q96QZ7
MAGI3_2, Q5TCQ9 = target: MAGI3_2, Q5TCQ9
MPDZ_10, O75970 = target: T6, MPDZ_10, O75970
T6 sequence (O75970 1624-1722, limits assumed, looked up): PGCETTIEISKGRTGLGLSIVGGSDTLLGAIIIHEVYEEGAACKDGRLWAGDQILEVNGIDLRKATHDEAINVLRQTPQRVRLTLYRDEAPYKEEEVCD

MPDZ_12, O75970 = target: T7, MPDZ_12, O75970
T7 sequence (O75970 1857-1958, limits assumed, looked up): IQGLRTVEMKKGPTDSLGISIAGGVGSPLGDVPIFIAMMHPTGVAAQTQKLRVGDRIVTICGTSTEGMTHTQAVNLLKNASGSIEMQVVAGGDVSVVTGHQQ

MPP7, Q5T2T1 = target: T8, MPP7, Q5T2T1
T8 sequence (Q5T2T1 134-230, limits assumed, looked up): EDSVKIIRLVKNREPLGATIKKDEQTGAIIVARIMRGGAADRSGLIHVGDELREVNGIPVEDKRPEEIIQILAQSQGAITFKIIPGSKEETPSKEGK

NHERF2_2, Q15599 = target: NHERF2_2, Q15599
PARD3B_1, Q8TEW8 = target: T9, PARD3B_1, Q8TEW8
T9 sequence (Q8TEW8 196-299, limits assumed, looked up): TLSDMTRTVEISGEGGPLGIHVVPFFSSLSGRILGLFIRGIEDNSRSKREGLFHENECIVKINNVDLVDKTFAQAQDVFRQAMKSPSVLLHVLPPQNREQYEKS

PDLIM1, O00151 = target: PDLIM1, O00151
PTPN13_1, Q12923 = target: T10, PTPN13_1, Q12923
T10 sequence (Q12923 1088-1188, limits assumed, looked up): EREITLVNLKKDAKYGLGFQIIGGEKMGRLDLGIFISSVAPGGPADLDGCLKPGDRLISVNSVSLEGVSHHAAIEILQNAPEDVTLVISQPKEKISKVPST

SNTG1, Q9NSN8 = target: T11, SNTG1, Q9NSN8
T11 sequence (Q9NSN8 52-150, limits assumed, looked up): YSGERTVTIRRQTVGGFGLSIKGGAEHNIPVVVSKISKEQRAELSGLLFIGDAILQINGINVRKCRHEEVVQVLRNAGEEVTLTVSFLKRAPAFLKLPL

TJP1_3, Q07157 = target: TJP1_3, Q07157
[1] = plain residues with an end cap or a label only (N-terminal biotin on a linker: ahx)
[2] = plain residues with an end cap or a label only (N-terminal biotin on a linker: ado-ado)
[3] = plain residues with an end cap or a label only (N-terminal biotin on a linker: ttds)

Chain of MAGI1_1, Q96QZ7 (Q96QZ7 1-106): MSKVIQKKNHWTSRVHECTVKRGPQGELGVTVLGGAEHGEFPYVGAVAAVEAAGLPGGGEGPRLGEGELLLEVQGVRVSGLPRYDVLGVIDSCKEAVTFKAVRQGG
Chain of DLG1_3, Q12959 (Q12959 457-571): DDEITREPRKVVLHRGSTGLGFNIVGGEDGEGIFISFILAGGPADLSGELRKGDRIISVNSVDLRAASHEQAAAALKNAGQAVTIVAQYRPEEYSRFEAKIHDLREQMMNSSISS
Chain of PDLIM1, O00151 (O00151 1-87): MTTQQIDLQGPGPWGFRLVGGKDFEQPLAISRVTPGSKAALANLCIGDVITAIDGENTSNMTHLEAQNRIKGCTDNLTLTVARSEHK
Chain of HTRA1, Q92743 (Q92743 360-477): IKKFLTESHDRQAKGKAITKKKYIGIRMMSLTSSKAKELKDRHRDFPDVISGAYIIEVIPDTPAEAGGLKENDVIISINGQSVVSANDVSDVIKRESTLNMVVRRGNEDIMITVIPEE
Chain of MAGI3_2, Q5TCQ9 (Q5TCQ9 398-503): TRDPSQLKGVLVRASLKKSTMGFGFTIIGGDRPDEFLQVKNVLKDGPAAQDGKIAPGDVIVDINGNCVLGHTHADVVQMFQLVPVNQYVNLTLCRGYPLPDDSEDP
Chain of ARHGEF12, Q9NZN5-2 (Q9NZN5 other isoform, or with tags, fused parts or gaps): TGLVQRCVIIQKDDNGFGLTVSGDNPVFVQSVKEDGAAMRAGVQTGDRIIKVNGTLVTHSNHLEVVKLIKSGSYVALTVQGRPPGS
Chain of TJP1_3, Q07157 (Q07157 416-512): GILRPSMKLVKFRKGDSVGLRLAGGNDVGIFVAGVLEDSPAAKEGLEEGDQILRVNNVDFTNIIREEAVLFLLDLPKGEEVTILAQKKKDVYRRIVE
Chain of GRIP2_4, Q9C0E4 (Q9C0E4 446-548): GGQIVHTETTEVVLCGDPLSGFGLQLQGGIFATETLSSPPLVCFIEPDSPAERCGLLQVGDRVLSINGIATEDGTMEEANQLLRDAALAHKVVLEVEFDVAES
Chain of Inadl_4, Q8NI35 (Q8NI35 547-651): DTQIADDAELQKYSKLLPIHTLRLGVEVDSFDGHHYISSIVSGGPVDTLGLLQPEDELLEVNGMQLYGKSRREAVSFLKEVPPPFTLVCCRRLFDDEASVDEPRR
Chain of Inadl_3, Q8NI35 (Q8NI35 359-469): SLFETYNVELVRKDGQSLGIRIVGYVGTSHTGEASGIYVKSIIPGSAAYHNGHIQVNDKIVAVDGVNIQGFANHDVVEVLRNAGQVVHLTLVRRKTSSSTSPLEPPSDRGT
Chain of GRID2IP_2, A4D2P6 (A4D2P6 272-370): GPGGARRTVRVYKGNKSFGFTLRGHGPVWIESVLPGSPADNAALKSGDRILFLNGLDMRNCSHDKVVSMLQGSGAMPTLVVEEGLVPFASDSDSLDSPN
Chain of Inadl_6, Q8NI35 (Q8NI35 1058-1167): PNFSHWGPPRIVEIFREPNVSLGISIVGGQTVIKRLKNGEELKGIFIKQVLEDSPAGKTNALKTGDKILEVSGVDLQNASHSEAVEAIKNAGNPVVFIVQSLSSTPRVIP
Chain of Inadl_5, Q8NI35 (Q8NI35 673-780): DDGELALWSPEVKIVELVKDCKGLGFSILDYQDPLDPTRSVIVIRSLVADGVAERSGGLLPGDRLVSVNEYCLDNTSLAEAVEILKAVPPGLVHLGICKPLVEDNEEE
Chain of NHERF2_2, Q15599 (Q15599 142-238): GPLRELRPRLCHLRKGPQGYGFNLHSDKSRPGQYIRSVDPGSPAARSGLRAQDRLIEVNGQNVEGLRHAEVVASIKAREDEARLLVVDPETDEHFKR
Chain of FRMPD2_3, Q68DX3 (Q68DX3 1073-1166): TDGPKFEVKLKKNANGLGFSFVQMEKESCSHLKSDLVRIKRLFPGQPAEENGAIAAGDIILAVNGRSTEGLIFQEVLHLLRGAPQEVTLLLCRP
Chain of CASK, O14936 (O14936 487-570): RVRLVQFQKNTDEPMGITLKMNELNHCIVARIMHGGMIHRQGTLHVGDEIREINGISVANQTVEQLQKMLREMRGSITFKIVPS

ADENEQVSAV [RAPGEF6, Q8TEU7]
pKd (APBA1_1, Q02410; [1]): below the threshold
pKd (ARHGEF12, Q9NZN5-2; [1]): 3.83
pKd (CASK, O14936; [1]): below the threshold
pKd (DFNB31_1, Q9P202; [1]): below the threshold
pKd (DLG1_3, Q12959; [1]): below the threshold
pKd (FRMPD2_3, Q68DX3; [1]): below the threshold
pKd (GRID2IP_2, A4D2P6; [1]): 4.19
pKd (GRIP1_4, Q9Y3R0; [1]): below the threshold
pKd (GRIP2_4, Q9C0E4; [1]): below the threshold
pKd (HTRA1, Q92743; [1]): 3.94
pKd (HTRA3, P83110; [1]): below the threshold
pKd (Inadl_3, Q8NI35; [1]): 3.63
pKd (Inadl_4, Q8NI35; [1]): below the threshold
pKd (Inadl_5, Q8NI35; [1]): below the threshold
pKd (Inadl_6, Q8NI35; [1]): 3.59
pKd (LIN7C, Q9NUP9; [1]): below the threshold
pKd (MAGI1_1, Q96QZ7; [1]): below the threshold
pKd (MAGI3_2, Q5TCQ9; [1]): 3.61
pKd (MPDZ_10, O75970; [1]): below the threshold
pKd (MPDZ_12, O75970; [1]): below the threshold
pKd (MPP7, Q5T2T1; [1]): below the threshold
pKd (NHERF2_2, Q15599; [1]): below the threshold
pKd (PARD3B_1, Q8TEW8; [1]): below the threshold
pKd (PDLIM1, O00151; [1]): below the threshold
pKd (PTPN13_1, Q12923; [1]): below the threshold
pKd (SNTG1, Q9NSN8; [1]): 4.07
pKd (TJP1_3, Q07157; [1]): below the threshold

SAPATLSSRA [PDLIM2, Q96JY6]
pKd (APBA1_1, Q02410; [1]): below the threshold
pKd (ARHGEF12, Q9NZN5-2; [1]): below the threshold
pKd (CASK, O14936; [1]): below the threshold
pKd (DFNB31_1, Q9P202; [1]): below the threshold
pKd (DLG1_3, Q12959; [1]): below the threshold
pKd (FRMPD2_3, Q68DX3; [1]): below the threshold
pKd (GRID2IP_2, A4D2P6; [1]): below the threshold
pKd (GRIP1_4, Q9Y3R0; [1]): below the threshold
pKd (GRIP2_4, Q9C0E4; [1]): below the threshold
pKd (HTRA1, Q92743; [1]): below the threshold
pKd (HTRA3, P83110; [1]): below the threshold
pKd (Inadl_3, Q8NI35; [1]): 3.48
pKd (Inadl_4, Q8NI35; [1]): below the threshold
pKd (Inadl_5, Q8NI35; [1]): below the threshold
pKd (Inadl_6, Q8NI35; [1]): below the threshold
pKd (LIN7C, Q9NUP9; [1]): below the threshold
pKd (MAGI1_1, Q96QZ7; [1]): below the threshold
pKd (MAGI3_2, Q5TCQ9; [1]): below the threshold
pKd (MPDZ_10, O75970; [1]): 4
pKd (MPDZ_12, O75970; [1]): below the threshold
pKd (MPP7, Q5T2T1; [1]): below the threshold
pKd (NHERF2_2, Q15599; [1]): below the threshold
pKd (PARD3B_1, Q8TEW8; [1]): below the threshold
pKd (PDLIM1, O00151; [1]): below the threshold
pKd (PTPN13_1, Q12923; [1]): below the threshold
pKd (SNTG1, Q9NSN8; [1]): below the threshold
pKd (TJP1_3, Q07157; [1]): below the threshold

ELKAEDEVQI [DCHS2, Q6V1P9]
pKd (APBA1_1, Q02410; [2]): below the threshold
pKd (ARHGEF12, Q9NZN5-2; [2]): below the threshold
pKd (CASK, O14936; [2]): below the threshold
pKd (DFNB31_1, Q9P202; [2]): below the threshold
pKd (DLG1_3, Q12959; [2]): below the threshold
pKd (FRMPD2_3, Q68DX3; [2]): below the threshold
pKd (GRID2IP_2, A4D2P6; [2]): below the threshold
pKd (GRIP1_4, Q9Y3R0; [2]): below the threshold
pKd (GRIP2_4, Q9C0E4; [2]): below the threshold
pKd (HTRA1, Q92743; [2]): 4.25
pKd (HTRA3, P83110; [2]): below the threshold
pKd (Inadl_3, Q8NI35; [2]): below the threshold
pKd (Inadl_4, Q8NI35; [2]): below the threshold
pKd (Inadl_5, Q8NI35; [2]): below the threshold
pKd (Inadl_6, Q8NI35; [2]): below the threshold
pKd (LIN7C, Q9NUP9; [2]): below the threshold
pKd (MAGI1_1, Q96QZ7; [2]): below the threshold
pKd (MAGI3_2, Q5TCQ9; [2]): below the threshold
pKd (MPDZ_10, O75970; [2]): below the threshold
pKd (MPDZ_12, O75970; [2]): below the threshold
pKd (MPP7, Q5T2T1; [2]): 4
pKd (NHERF2_2, Q15599; [2]): below the threshold
pKd (PARD3B_1, Q8TEW8; [2]): 3.89
pKd (PDLIM1, O00151; [2]): below the threshold
pKd (PTPN13_1, Q12923; [2]): below the threshold
pKd (SNTG1, Q9NSN8; [2]): below the threshold
pKd (TJP1_3, Q07157; [2]): below the threshold

SGGKRKETLV [NET1, Q7Z628]
pKd (APBA1_1, Q02410; [3]): below the threshold
pKd (ARHGEF12, Q9NZN5-2; [3]): 3.74
pKd (CASK, O14936; [3]): below the threshold
pKd (DFNB31_1, Q9P202; [3]): below the threshold
pKd (DLG1_3, Q12959; [3]): 4.44
pKd (FRMPD2_3, Q68DX3; [3]): below the threshold
pKd (GRID2IP_2, A4D2P6; [3]): 3.56
pKd (GRIP1_4, Q9Y3R0; [3]): below the threshold
pKd (GRIP2_4, Q9C0E4; [3]): below the threshold
pKd (HTRA1, Q92743; [3]): below the threshold
pKd (HTRA3, P83110; [3]): below the threshold
pKd (Inadl_3, Q8NI35; [3]): below the threshold
pKd (Inadl_4, Q8NI35; [3]): below the threshold
pKd (Inadl_5, Q8NI35; [3]): 3.78
pKd (Inadl_6, Q8NI35; [3]): 3.6
pKd (LIN7C, Q9NUP9; [3]): 4.4
pKd (MAGI1_1, Q96QZ7; [3]): below the threshold
pKd (MAGI3_2, Q5TCQ9; [3]): 5.92
pKd (MPDZ_10, O75970; [3]): below the threshold
pKd (MPDZ_12, O75970; [3]): below the threshold
pKd (MPP7, Q5T2T1; [3]): below the threshold
pKd (NHERF2_2, Q15599; [3]): below the threshold
pKd (PARD3B_1, Q8TEW8; [3]): 3.52
pKd (PDLIM1, O00151; [3]): below the threshold
pKd (PTPN13_1, Q12923; [3]): below the threshold
pKd (SNTG1, Q9NSN8; [3]): 3.83
pKd (TJP1_3, Q07157; [3]): below the threshold

From article PMC9482650, “Quantitative fragmentomics allow affinity mapping of interactomes” (Nature Communications, 2022)
